Data from patent publication US12578343B2, “Selective ACKR3 modulators and uses thereof” (Luxembourg Institute of Health (LIH), priority 2019, dated 2026).

Tests used:
[1] = target: T1, CXCR4 (Homo sapiens, UniProt P61073); experiment: Dynamic mass redistribution (DMR), U87 cells expressing CXCR4; assay type: cell-based; conditions: 200 nM
T1 construct: expressed in transfected cells; pcDNA3.1 transient for DMR
Method: 1.5. Label-Free Dynamic Mass Redistribution (DMR) Assay
Dynamic mass redistribution (DMR) experiments were conducted using the Corning Epic (Corning) biosensor system as previously described in Schröder, R. et al. Deconvolution of complex G protein-coupled receptor signaling in live cells using dynamic mass redistribution measurements. Nat Biotechnol 28, 943-949 (2010) and Schröder, R. et al. Applying label-free dynamic mass redistribution technology to frame signaling of G protein-coupled receptors noninvasively in living cells. Nat Protoc. 6(11): 1748-1760 (2011). In brief, 6×10^5 U87 cells were seeded in 6-cm dishes. 24 hours later cells were transfected with pcDNA3.1-based expression plasmids coding for the respective chemokine (ACKR3, CXCR4) or opioid (KOR, NOP) receptors using polyethylenimine (PEI) reagent (Polysciences). 24 hours after transfection 1×10^4 cells per well were transferred to a 384-well Epic biosensor plate and incubated (37° C., 5% CO2) overnight. Cells were then washed twice with Hanks' balanced salt solution (HBSS) (Life Technologies) containing 20 mM HEPES (Life Technologies) and subsequently incubated in the DMR-reader for 1.5 hours to achieve temperature equilibration (37° C.). […] Alterations of ligand-induced DMR were monitored for at least 3000 seconds. Raw data were processed and analysed using GraphPad Prism 7.05 (GraphPad Inc).

[2] = target: T1, CXCR4; experiment: HTRF ERK1/2 phosphorylation, U87 cells stably expressing CXCR4; assay type: cell-based; conditions: between 2 and 120 minutes after stimulation
Method: 1.6 Homogeneous Time-Resolved Fluorescence (HTRF)-Based Extracellular Signal Regulated Kinases 1 and 2 (ERK1/2) Phosphorylation Assays
Homogeneous Time-Resolved Fluorescence (HTRF)-based phospho-ERK1/2 and total-ERK1/2 assays were performed using phospho-ERK1/2 (Thr202/Tyr204) and total-ERK1/2 cellular kits (Cisbio International). In short, for quantification of total and phosphorylated ERK1/2 protein, U87 cells stably expressing (or not) ACKR3 or CXCR4 were seeded at a density of 3.5×10^4 cells per well into 96-well poly-D-lysine (PDL)-coated microtiter plates (Sigma-Aldrich). After overnight incubation, cells were starved for 4 hours at 37° C. in serum-free medium. Cells were then stimulated for the indicated time intervals with chemokine or opioid ligands, respectively, before termination by replacement of supernatants with lysis buffer followed by 1.5 hours incubation on an orbital shaker. […] D2-labeled anti-total-ERK1/2 and Eu^3+-Cryptate-labelled anti-total-ERK1/2 antibodies were added for quantification of total-ERK1/2 abundance. Following an incubation time of at least 2 hours (phospho-ERK1/2) or 24 hours (total-ERK1/2), time-resolved FRET signals were measured using the Mithras LB 940 multimode reader (Berthold Technologies) equipped with 320 nm excitation filter and 620 nm (donor) and 665 nm (acceptor) emission filters.

[3] = target: T2, ACKR3 (Homo sapiens, UniProt P25106); experiment: Opioid peptide library screening: β-arrestin-2 recruitment to ACKR3 in U87 cells; assay type: cell-based; set-up: expressed in transfected cells; host or cells: U87 cells, transient co-transfection of pNBe vectors; conditions: 5 μM
Method: (§1) In brief, 1.2×10^6 U87 cells were plated in 10 cm-culture dishes and 48 hours later co-transfected with pNBe vectors encoding GPCRs C-terminally tagged to SmBiT and human β-arrestin-1 or -2 or mini G proteins (mG, engineered GTPase domains of Gα subunits,) N-terminally fused to LgBiT. 48 hours post-transfection cells were harvested, incubated 25 minutes at 37° C. with Nano-Glo Live Cell substrate diluted 200-fold and distributed into white 96-well plates (5×10^4 cells per well). Ligand-induced, β-arrestin and mG recruitment to GPCRs was evaluated with a Mithras LB940 luminometer (Berthold Technologies) for 20 minutes. For concentration-response curves, the signal recorded with a saturating concentration of full agonist for each receptor was set as 100%.
Target sequence in this assay (P25106 whole entry, the tested form may be a part): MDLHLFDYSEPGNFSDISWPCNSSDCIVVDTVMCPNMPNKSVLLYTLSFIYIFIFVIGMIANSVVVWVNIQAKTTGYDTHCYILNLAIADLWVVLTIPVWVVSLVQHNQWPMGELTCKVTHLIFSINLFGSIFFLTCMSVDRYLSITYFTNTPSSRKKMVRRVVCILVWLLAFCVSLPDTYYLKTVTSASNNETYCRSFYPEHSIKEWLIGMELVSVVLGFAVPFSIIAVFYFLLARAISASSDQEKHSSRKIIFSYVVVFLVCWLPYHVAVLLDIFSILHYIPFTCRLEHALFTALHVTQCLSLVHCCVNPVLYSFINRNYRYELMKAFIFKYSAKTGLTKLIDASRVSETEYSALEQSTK
Target sequence in this assay (P32121 whole entry partner, the tested form may be a part): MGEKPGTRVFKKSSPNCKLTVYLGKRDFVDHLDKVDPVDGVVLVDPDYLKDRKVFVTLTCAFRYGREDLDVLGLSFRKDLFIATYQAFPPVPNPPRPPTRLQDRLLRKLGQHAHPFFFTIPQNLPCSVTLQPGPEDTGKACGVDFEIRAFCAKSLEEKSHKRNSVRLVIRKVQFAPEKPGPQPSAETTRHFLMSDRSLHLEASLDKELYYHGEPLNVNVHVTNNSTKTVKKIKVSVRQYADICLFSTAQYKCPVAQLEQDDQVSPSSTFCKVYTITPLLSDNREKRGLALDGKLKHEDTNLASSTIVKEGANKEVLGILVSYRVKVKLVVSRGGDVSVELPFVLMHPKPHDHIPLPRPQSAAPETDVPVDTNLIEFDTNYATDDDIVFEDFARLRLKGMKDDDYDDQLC

[4] = target: T3, CX3CR1 (Homo sapiens, UniProt P49238); experiment: β-arrestin recruitment to CX3CR1 (NanoBiT); assay type: cell-based; conditions: saturating concentration (3 μM)
T3 construct: expressed in transfected cells; host or cells: U87 cells, transient co-transfection of pNBe vectors
T3 sequence (P49238 1-355): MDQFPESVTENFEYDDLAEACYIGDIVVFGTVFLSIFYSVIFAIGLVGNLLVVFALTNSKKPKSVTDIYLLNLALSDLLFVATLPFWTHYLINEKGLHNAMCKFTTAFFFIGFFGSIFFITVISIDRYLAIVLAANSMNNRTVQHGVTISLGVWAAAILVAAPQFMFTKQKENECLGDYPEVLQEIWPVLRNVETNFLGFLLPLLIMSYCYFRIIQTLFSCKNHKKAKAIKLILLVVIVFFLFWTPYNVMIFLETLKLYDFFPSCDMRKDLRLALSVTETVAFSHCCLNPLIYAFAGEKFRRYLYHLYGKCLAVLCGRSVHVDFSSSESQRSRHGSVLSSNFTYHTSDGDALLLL
Method: as §1

[5] = target: T4, CCR3 (Homo sapiens, UniProt P51677); experiment: β-arrestin recruitment to CCR3 (NanoBiT); assay type: cell-based; conditions: saturating concentration (3 μM)
T4 construct: expressed in transfected cells; host or cells: U87 cells, transient co-transfection of pNBe vectors
T4 sequence (P51677 1-355): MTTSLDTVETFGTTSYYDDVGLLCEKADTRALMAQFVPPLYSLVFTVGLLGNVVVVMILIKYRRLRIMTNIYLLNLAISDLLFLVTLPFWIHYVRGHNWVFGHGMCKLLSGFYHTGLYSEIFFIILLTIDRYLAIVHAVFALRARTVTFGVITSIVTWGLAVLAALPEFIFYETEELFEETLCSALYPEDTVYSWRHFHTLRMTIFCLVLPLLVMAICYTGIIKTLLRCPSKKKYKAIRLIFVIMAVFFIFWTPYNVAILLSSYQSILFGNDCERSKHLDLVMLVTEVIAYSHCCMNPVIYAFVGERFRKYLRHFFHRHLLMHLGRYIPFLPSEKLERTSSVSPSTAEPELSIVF
Method: as §1

[6] = target: T2, ACKR3; assay type: cell-based; set-up: expressed in transfected cells; host or cells: U87 cells, transient co-transfection of pNBe vectors; conditions: U87 cells
Target sequence in this assay (P25106 whole entry, the tested form may be a part): as the sequence (P25106 whole entry, the tested form may be a part) above
Target sequence in this assay (P49407 whole entry partner, the tested form may be a part): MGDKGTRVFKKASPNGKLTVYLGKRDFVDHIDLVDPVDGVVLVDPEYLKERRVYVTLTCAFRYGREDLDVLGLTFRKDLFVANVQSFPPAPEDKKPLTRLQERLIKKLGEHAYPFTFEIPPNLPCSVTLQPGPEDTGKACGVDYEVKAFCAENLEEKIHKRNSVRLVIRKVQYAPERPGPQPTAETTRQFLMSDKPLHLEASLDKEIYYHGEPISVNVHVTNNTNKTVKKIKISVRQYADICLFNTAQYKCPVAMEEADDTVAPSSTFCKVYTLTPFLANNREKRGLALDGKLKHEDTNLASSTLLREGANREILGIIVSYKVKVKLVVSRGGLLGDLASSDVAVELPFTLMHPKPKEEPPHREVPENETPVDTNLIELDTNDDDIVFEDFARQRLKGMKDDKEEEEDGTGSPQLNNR

[7] = test system: CXCR3; experiment: β-arrestin recruitment to CXCR3 (NanoBiT); assay type: cell-based, human; conditions: saturating concentration (3 μM)
Method: as §1

[8] = target: T2, ACKR3; experiment: Uptake of fluorescently labelled opioid peptides by ACKR3-expressing U87 cells, imaging flow cytometry; assay type: cell-based; set-up: expressed in transfected cells; for the receptor comparison in the uptake assay, transient pcDNA3.1); conditions: 40 minutes at 37° C.
Target sequence in this assay (P25106 whole entry, the tested form may be a part): as the sequence (P25106 whole entry, the tested form may be a part) above
Excerpt: Visualization of Fluorescently Labelled Opioid Peptides Uptake by Imagestream

[9] = test system: smNPCs; experiment: Uptake of labelled dynorphin A (1-13) by smNPCs, imaging flow cytometry; assay type: cell-based, human
Method: U87 cells derived from human brain glioblastoma were obtained through the NIH AIDS Reagent Program from Dr. Deng and Dr. Littman. U87 stably expressing ACKR3 and CXCR4 were generated as previously described in Szpakowska, M. et al. Different contributions of chemokine N-terminal features attest to a different ligand binding mode and a bias towards activation of ACKR3/CXCR7 compared with CXCR4 and CXCR3. Br J Pharmacol 175, 1419-1438 (2018). U87 cells were grown in Dulbecco's modified Eagle medium (DMEM) supplemented with 15% foetal bovine serum and penicillin/streptomycin (100 Units/ml and 100 μg/ml). U87-ACKR3 and U87-CXCR4 were maintained under puromycin (1 μg/ml) selective pressure. smNPCs (small molecule neural precursor cells) derived from a healthy donor (C1-1) whose informed consent was obtained, were grown on Geltrex™-coated surface in N2B27 medium supplemented with 0.5 μM Purmorphamine, 3 μM CHIR 99021 and 150 μM ascorbic acid. N2B27 medium consisted of DMEM/F12 and NeuroBasal medium 50:50 with 0.5% N2 supplement, 1% B27 supplement lacking vitamin A, 1% GlutaMAX and 1% penicilin/streptomycin. Medium was renewed every other day.
Cells were distributed into 96-well plates (2×10^5 cells/well in Opti-MEM for U87 and U87-ACKR3 and 3×10^5 cells/well in N2B27 medium for smNPCs). […] For comparison of labelled opioid peptide-uptake by ACKR3 or classical opioid receptors, 1.2×10^6 U87 cells were seeded in 10-cm dishes and transfected 48 hours later with 4 μg pcDNA3.1 plasmid encoding ACKR3 or KOR, MOR or NOP. 48 hours post transfection, cells were harvested and treated as described above. Dead cells were excluded using Zombie NIR or Zombie Green viability dye (BioLegend) for FAM-labelled peptides and Cy5-labelled peptides, respectively. Images of 1×10^4 in-focus, living single cells were acquired with an ImageStream MKII imaging flow cytometer (Amnis) using 40× magnification (60× magnification for smNPCs). Samples were analysed using Ideas6.2 software. The number of spots per cell was determined using a mask-based software wizard.

[10] = target: T2, ACKR3; experiment: ACKR3-mediated depletion of extracellular dynorphin A monitored by its ability to activate KOR (U87-ACKR3 cells); assay type: cell-based; set-up: expressed in transfected cells; for the receptor comparison in the uptake assay, transient pcDNA3.1); conditions: pre-treatment of ACKR3-expressing cells, saturating concentration
Method: as §1
Target sequence in this assay (P25106 whole entry, the tested form may be a part): as above

[11] = test system: ACKR3; experiment: B-arrestin-1 | ACKR3 | EC50 (nM)
Excerpt: Table printed on a drawing sheet, FIG. 1 (continued) H
Head of the field: B-arrestin-1 | ACKR3 | EC50 (nM)
The patent's description of the figure: FIG. 1 Opioid peptide library screening on ACKR3, hit confirmation and comparison with classical opioid receptors. (A) The ability of 58 compounds, including natural opioid peptides from the four opioid families, variants thereof and small molecule opioid receptor modulators, to induce β-arrestin-2 recruitment to ACKR3, CXCR4 and CXCR3 in U87 cells at a concentration of 5 μM. Positive control chemokines were used at a concentration of 300 nM. Results are expressed as fold change over vehicle-treated cells and presented as mean±S.D of two replicates (B-F) Comparison of potency and efficacy of ACKR3-activating peptides in inducing β-arrestin-1 recruitment to the opioid receptors MOR (B), DOR (C), KOR (D), NOP (E) and ACKR3 (F) in U87 cells. Results are expressed as percentage of indicated agonist response. […] Results from B—H are presented as mean±S.E.M (n ? 3).
Where the first naming reader finds the target: head: B-arrestin-1 | ACKR3 | EC50 (nM)

[12] = target: T5, MOR (Homo sapiens, UniProt P35372); assay type: cell-based
T5 construct: expressed in transfected cells; host or cells: U87 cells, transient co-transfection of pNBe vectors
Method: as §1

[13] = target: T6, DOR (Homo sapiens, UniProt P41143); experiment: β-arrestin-1 recruitment to DOR (NanoBiT, U87 cells); assay type: cell-based
T6 construct: expressed in transfected cells; host or cells: U87 cells, transient co-transfection of pNBe vectors
Method: as §1

[14] = target: KOR (Homo sapiens, UniProt P41145); experiment: β-arrestin-1 recruitment to KOR (NanoBiT, U87 cells); assay type: cell-based; set-up: expressed in transfected cells; host or cells: U87 cells, transient co-transfection of pNBe vectors
Method: as §1

[15] = target: T7, native or CXCR4-expressing U87 cells (Homo sapiens, UniProt P61073); experiment: Binding of fluorescently labelled LIH383 to native or CXCR4-expressing cells
T7 construct: expressed in transfected cells; pcDNA3.1 transient for DMR
T7 sequence (P61073 whole entry): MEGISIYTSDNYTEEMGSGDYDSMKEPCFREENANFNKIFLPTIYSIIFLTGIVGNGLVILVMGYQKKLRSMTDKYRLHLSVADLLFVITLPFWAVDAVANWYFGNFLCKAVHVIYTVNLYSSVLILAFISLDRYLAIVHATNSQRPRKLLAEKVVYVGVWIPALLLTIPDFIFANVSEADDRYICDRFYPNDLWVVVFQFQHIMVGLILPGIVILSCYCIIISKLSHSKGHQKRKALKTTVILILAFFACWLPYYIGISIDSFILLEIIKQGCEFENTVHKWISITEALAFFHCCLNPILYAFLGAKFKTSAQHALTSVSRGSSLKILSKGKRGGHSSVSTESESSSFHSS

T1 sequence (P61073 whole entry): as above
T6 sequence (P41143 whole entry): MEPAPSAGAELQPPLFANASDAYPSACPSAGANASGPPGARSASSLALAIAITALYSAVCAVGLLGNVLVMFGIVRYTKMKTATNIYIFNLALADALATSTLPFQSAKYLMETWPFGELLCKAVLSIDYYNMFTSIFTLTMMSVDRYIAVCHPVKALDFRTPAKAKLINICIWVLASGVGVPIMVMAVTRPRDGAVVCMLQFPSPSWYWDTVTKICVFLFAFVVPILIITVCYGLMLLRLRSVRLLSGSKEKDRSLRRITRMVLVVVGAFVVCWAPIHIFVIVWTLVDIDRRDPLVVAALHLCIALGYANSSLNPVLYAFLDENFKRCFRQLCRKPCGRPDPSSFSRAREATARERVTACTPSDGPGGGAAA
CXCR3, sequence (P49682 5-368 limits assumed): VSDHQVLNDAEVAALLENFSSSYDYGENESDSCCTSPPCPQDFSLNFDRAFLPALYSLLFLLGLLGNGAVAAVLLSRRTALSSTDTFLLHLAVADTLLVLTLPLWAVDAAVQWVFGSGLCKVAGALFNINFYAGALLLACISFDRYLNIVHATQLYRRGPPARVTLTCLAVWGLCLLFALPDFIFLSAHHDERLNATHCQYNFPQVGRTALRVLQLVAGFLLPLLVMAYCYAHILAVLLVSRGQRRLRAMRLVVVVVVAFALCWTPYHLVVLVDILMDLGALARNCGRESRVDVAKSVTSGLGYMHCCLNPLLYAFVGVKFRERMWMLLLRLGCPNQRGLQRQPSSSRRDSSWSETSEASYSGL
T5 sequence (P35372 whole entry): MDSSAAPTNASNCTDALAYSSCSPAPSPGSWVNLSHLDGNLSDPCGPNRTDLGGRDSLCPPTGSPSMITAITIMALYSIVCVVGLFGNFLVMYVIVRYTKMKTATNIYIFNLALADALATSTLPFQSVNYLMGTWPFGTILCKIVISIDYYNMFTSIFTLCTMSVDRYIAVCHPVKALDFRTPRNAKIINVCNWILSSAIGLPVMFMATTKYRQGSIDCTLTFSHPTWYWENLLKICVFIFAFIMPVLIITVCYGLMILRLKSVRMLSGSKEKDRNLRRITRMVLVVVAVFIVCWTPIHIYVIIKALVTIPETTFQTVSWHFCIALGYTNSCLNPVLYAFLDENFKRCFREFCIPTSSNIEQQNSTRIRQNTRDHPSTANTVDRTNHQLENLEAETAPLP
KOR, sequence (P41145 whole entry): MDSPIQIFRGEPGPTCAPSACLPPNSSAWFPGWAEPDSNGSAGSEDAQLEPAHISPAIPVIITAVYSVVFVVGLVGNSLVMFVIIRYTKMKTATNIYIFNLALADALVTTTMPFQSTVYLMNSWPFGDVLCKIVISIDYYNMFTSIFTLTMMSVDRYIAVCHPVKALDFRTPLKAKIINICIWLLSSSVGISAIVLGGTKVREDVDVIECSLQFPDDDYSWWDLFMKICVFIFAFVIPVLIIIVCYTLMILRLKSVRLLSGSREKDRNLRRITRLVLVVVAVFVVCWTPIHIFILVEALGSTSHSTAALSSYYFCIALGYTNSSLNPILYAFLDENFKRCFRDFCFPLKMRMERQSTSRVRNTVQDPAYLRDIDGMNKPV

Substance: CXCL12: C—X—C motif chemokine 12, endogenous ACKR3 chemokine ligand
- DMR response of CXCR4-expressing U87 cells [1]: strong DMR
- ERK phosphorylation, cells stably expressing CXCR4 [2]: strong increase in ERK phosphorylation

Substance: BAM18: opioid peptide previously reported as ACKR3 ligand (YGGFMRRVGRPEWWMDYQ)
- ability to induce β-arrestin-2 recruitment to ACKR3 (library screening) [3]: capable of inducing β-arrestin-2 recruitment to ACKR3

Substance: big dynorphin: the precursor of dynorphin A and B
- β-arrestin recruitment to CX3CR1 [4]: faint induction of β-arrestin recruitment
- β-arrestin recruitment to CCR3 [5]: faint induction of β-arrestin recruitment
- β-arrestin recruitment to ACKR3: agonist activity/potency in words [6]: at low concentrations comparable to their activity on the classical opioid receptors
- β-arrestin recruitment to CXCR3 [7]: faint induction of β-arrestin recruitment

Substance: dynorphin A 1-13: endogenous opioid peptide, fragment of dynorphin A (YGGFLRRIRPKLK) [reference compound]
- uptake of the fluorescently labelled peptide by ACKR3-expressing cells (also versus classical opioid receptor) [8]: more efficient compared to that of KOR
- accumulation of the labelled peptide by smNPCs ([9]; 250 nM, 40 minutes at 37° C.): able to accumulate

Substance: MRRKFGGF [LIH383 ctrl, control peptide consisting of the 8 amino acids building LIH383 in a different arrangement, reference compound]
- reversal of the ACKR3-mediated impairment of dynorphin A potency to activate KOR by pre-treatment [10]: not
- effect of pretreatment on uptake of labelled dynorphin A (1-13) by smNPCs ([9]; 3 μM, 15 minutes pre-treatment): not

Substance: BAM22: proenkephalin-derived opioid peptide
- EC50 [11]: 23.5 nM

Substance: FGGFMRRV [adrenorphin Y1F variant]
- reduction of potency towards MOR as compared to WT adrenorphin [12]: over 100 fold
- reduction of potency towards DOR as compared to WT adrenorphin [13]: over 100 fold
- impact of adrenorphin modification on activity towards ACKR3 (versus adrenorphin), in words ([6]; β-arrestin-1 recruitment): tenfold improvement in potency
- reduction of potency towards KOR as compared to WT adrenorphin [14]: over 100 fold

Substance: Cy-5-labelled LIH383: fluorescently labelled LIH383 (LIH383-Cy5)
- binding to native or CXCR4-expressing U87 cells [15]: not to native or CXCR4-expressing U87 cells
